From patent US20240189351A1 (US Dept. of Health and Human Services, published 2024)

Target: T1, recombinant human IL-13Rα2Fc chimera protein (R&D) (human, UniProt Q14627 27-343, biotinylated (sulfo-NHS-biotin) in the immunofluorescence assay only)
T1 construct: Bought protein (R&D); It was used biotinylated in the IFA and unlabelled in the migration assay; also called huIL-13Rα2Fc chimeric protein; HuIL-13Rα2Fc; Fc part of the bought chimera not given
T1 sequence (looked up): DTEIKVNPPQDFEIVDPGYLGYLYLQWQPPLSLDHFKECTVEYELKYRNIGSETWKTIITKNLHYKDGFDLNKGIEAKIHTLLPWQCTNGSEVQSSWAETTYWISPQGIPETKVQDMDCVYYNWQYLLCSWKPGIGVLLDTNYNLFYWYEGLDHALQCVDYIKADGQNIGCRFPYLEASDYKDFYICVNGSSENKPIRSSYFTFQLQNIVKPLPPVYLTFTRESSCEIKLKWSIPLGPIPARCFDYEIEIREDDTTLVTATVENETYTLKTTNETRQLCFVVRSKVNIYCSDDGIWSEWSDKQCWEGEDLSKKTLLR
Assay: method not stated; affinity for recombinant IL-13Rα2Fc compared with the previously cloned scFv

fold higher binding affinity compared to the previously cloned scFv ECD-IL-13Rα2 (Kioi et al. 2008): > 4 fold
B1: IL-13Rα2 scFv (improved scFv-IL-13Rα2) (scFv)
scFv: QVQLVQSGAEVKKPGASVKVSCKASGYTFTSYAMHWVRQAPGQRLEWMGWINAGNGNTKYSQKFQGRVTITRDTSASTAYMELSSLRSEDTAVYYCARMNHMIPLKAWGQGTLVTVSSGGGGSGGGGSGGSALAIQMTQSPSSLSASVGDRVTITCRASQGIRNDLGWYQQKPGKAPKLLIYAASSLQSGVPSRFSGSGSGTDFTLTISSLQPEDFATYYCLQMYNYRTFGQGTKLEIKRA
notes: also called clone derived protein
